{
  "source": "patent US20220251207A1",
  "about": "(JIANGSU ALPHAMAB BIOPHARMACEUTICALS, published 2022)",
  "key": {"[1]": {"molecular_target": "T1, human CTLA4 expressed on HEK293-CTLA4 cells (human, UniProt P16410 36-223)", "T1 construct": "whole, on cells; also called human CTLA4 on the cell surface", "assay": "competitive flow cytometry; taken as HEK293-CTLA4 cells with CD86-muFc as the blocked ligand, from the order of paragraph 274 and paragraph 275; the panel has no title"}, "[2]": {"molecular_target": "T1, human CTLA4 expressed on HEK293-CTLA4 …", "assay": "flow cytometry on HEK293-CTLA4 cells, MFI, four-parameter fit", "procedure": "3% of BSA/PBS was used to adjust the density of HEK293-CTLA4 cells to 3×10⁶ cells/ml.\nThen, APC-goat anti-mouse IgG at a dilution of 1:100 was used, and placed on ice for 30 min for reaction. After that, they were washed with 1% of BSA/PBS and resuspended, and then detected on a FACS machine (using a Guava EasyCyte instrument).\nThe flow cytometry results were analyzed by Guava 5.3.1 to calculate the mean fluorescence intensity (MFI) of the detected samples. The log values of the obtained MFI versus the concentrations of the samples were calculated, and the experimental results were fit with four parameters using GraphPad Prism 6.0."}, "[3]": {"molecular_target": "CTLA4-muFc (fusion protein of human CTLA4 and mouse Fc) (human)", "assay": "competitive flow cytometry; taken as CTLA4-muFc with human CD86 on HEK293-CD86 cells as the blocked ligand, from the order of paragraph 274 and paragraph 275; the panel has no title"}},
  "data": [
    {"binder": "KN044 (VHH) VHH: QVQLVESGGGLVQPGGSLRLSCAASGYIYSAYCMGWFRQAPGKGLEGVAAIYIGGGSTYYADSVKGRFTISRDNSKNTLYLQMNSLRAEDTAVYYCAADVIPTETCLGGSWSGPFGYWGQGTLVTVSS", "values": [
      {"measurement": "IC50 (read off the curve)", "setting": "[1]", "result": "~8", "unit": "nM"},
      {"measurement": "EC50", "setting": "[2]", "result": 2.01, "unit": "nM"},
      {"measurement": "IC50 (read off the curve)", "setting": "[3]", "result": "~10", "unit": "nM"}
    ]}
  ]
}
